# Reference: patent US20160237160A1, “ANTI-TWEAKR ANTIBODIES AND USES THEREOF” (BAYER PHARMA AKTIENGESELLSCHAFT, priority 2013, published 2016)
# Biological target: TWEAKR (TNFRSF12A, FN14), human, on tumor cell lines (human) (UniProt Q9NP84)
# Assay: cell-based or functional assay
substance,measurement,value
"recombinant human TWEAK (R&D, #1090-TW-025/CF) (ligand)","% Inhibition of proliferation, 786-O cells, 96h, 100 ng/ml",12%
same,"% Inhibition of proliferation, A253 cells, 72h, 300 ng/ml",> 100%
same,"% Inhibition of proliferation, HT-29 cells, 24h, 300 ng/ml",98%
same,"% Inhibition of proliferation, LOVO cells, 72h, 100 ng/ml",53%
same,"% Inhibition of proliferation, NCI-H1975 cells, 72h, 100 ng/ml",56%
same,"% Inhibition of proliferation, SW480 cells, 72h, 100 ng/ml",0%
same,"Fold induction of Caspase 3/7, 786-O cells, 300 ng/ml",1.45 fold
same,"Fold induction of Caspase 3/7, A253 cells, 300 ng/ml",1.53 fold
same,"Fold induction of Caspase 3/7, HT-29 cells, 300 ng/ml",2.31 fold
same,"Fold induction of Caspase 3/7, NCI-H322 cells, 100 ng/ml",1.39 fold
same,"Fold induction of Caspase 3/7, WiDr cells, 300 ng/ml",1.22 fold
